Test results: patent US20160032013A1 (Genentech, published 2016)

T1: Mouse RON on cells (3T3-mRON cells; mouse colon and skin) (mouse, UniProt Q62190 24-1378)
T1 sequence: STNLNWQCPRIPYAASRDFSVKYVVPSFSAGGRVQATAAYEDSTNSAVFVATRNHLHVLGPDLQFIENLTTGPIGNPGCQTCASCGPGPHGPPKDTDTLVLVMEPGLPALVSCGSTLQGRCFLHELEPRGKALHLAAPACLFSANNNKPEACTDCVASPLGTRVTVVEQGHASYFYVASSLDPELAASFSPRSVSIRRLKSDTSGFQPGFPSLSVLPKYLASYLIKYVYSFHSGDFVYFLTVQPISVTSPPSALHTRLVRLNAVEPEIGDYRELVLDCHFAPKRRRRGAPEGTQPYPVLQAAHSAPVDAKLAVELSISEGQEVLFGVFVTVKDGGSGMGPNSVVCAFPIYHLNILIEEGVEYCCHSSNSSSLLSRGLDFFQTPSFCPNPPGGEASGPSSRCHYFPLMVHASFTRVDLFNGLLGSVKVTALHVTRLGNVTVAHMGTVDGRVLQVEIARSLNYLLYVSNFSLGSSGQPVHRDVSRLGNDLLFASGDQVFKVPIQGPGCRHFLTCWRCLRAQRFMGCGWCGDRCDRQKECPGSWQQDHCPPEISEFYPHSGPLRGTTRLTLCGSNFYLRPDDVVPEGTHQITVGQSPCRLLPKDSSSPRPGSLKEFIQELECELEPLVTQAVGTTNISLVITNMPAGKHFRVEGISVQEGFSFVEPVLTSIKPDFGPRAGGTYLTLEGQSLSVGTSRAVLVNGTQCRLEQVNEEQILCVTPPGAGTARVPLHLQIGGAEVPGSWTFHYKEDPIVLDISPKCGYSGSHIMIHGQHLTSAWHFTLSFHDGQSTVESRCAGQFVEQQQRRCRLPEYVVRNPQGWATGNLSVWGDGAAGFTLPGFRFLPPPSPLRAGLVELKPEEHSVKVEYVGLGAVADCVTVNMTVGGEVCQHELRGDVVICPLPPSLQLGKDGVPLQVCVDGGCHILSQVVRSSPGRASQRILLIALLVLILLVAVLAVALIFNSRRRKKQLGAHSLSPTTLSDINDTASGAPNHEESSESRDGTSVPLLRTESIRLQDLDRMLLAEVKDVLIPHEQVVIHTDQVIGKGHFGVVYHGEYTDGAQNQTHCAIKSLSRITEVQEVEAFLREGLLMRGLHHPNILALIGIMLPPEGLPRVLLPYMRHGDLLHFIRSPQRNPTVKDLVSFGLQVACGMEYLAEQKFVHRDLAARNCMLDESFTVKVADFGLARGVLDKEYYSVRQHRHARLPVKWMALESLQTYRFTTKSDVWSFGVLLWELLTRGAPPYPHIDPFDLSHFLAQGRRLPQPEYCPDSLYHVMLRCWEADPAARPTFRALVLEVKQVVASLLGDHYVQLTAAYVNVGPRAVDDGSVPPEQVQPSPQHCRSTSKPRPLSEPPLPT


How the values were obtained:
[1] = target: T1, Mouse RON on cells (3T3-mRON cells; …); test: cell-based or functional assay
[2] = target: T2, Mouse RON-hIgG1 Fc (murine RON Sema/PSI/IPT1, natural leader + R33-V684, fused to human IgG1 Fc) (mouse); test: SPR (Biacore), anti-Fc chip; legend names murine RON-Fc; the sheet's scheme ('RON or MSP' over 'MSP-Fc or RON-Fc') and have the MSPβ-Fc fusion captured and soluble RON-His injected
T2 construct: also called mRON-hFc; murine RON-Fc
Protocol: (§1) Binding kinetics of RON to MSP β-Fc fusion proteins and MSP proteins to RON-Fc fusions were determined using a Biacore 3000 optical biosensor equipped with a research-grade CM5 sensor chip (GE Healthcare). Amine coupling reagents, N-ethyl-N′-dimethylamino-propylcarbodiimide (EDC), N-hydroxy-succinimide (NHS) and sodium ethanolamine HCl, pH 8.5, were obtained from GE Healthcare. Standard coupling protocols were used to tether a rabbit anti-human IgG1 or rabbit anti-murine IgG2a (Jackson ImmunoResearch Laboratories) onto the biosensor surface. A biosensor chip that was subjected to the amine coupling procedure with no protein coupled was used to correct for non-specific binding. […] Various concentrations (500-3.9 nM, 2-fold dilution series) of RON-His, were injected in HBS-P buffer (10 mM HEPES, pH 7.5, 150 mM NaCl, 0.005% P20) at 25° C. with a flow rate of 30 μL/min and dissociation monitored for 240 sec. Between measurements, the biosensor surfaces were regenerated with a 120 s pulse of 10 mM glycine-HCl pH 1.5 followed by a 120 s wash with running buffer.

[3] = target: T1, Mouse RON on cells (3T3-mRON cells; …); test: flow cytometry on 3T3-mRON cells
[4] = target: T3, Recombinant human RON Sema/PSI (residues E25-P568) with C-terminal His-tag (human, UniProt Q04912 25-568); test: SPR using immobilized RON Sema/PSI at 25 C
T3 construct: Made in Trichoplusia ni insect cells

[5] = target: T4, Human RON-hIgG1 Fc (RON Sema/PSI/IPT1 fused to human IgG1 Fc) (human); test: BLI using RON-Fc at 30 C
T4 construct: also called RON-Fc; hRON-Fc
T4 sequence (chain, as listed by the source limits assumed): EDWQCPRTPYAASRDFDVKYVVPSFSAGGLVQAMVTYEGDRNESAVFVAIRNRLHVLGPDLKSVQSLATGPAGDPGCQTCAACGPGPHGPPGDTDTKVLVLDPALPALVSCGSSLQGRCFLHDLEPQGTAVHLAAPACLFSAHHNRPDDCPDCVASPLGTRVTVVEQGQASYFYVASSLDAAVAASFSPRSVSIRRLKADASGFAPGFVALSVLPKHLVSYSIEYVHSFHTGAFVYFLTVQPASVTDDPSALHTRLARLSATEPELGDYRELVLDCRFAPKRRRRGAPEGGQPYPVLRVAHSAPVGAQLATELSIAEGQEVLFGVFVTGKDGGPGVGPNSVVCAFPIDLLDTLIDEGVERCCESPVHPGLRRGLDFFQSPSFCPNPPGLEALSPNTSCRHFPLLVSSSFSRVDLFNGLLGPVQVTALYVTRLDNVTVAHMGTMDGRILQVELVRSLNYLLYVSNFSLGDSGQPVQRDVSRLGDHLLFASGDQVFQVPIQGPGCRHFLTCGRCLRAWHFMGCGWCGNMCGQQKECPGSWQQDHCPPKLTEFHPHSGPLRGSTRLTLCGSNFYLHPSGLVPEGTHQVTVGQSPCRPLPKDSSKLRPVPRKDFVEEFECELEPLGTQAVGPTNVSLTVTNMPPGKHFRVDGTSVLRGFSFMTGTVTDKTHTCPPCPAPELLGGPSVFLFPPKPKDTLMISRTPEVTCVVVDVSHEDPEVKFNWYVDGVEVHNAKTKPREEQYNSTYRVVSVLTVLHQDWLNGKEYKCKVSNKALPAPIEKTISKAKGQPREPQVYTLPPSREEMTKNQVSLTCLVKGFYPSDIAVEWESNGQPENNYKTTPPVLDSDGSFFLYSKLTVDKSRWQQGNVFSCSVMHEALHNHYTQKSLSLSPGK
Protocol: Real-time kinetic measurements of MSP binding to RON were conducted using an Octet RED384 (ForteBio, Inc). Samples or buffer were dispensed into 96-well microtiter plates (Greiner Bio-One North America, Inc.) at a volume of 200 μl per well. Anti-human IgG Fc Biosensors were used for the experiments. Each experiment consisted of three steps: incubation with ForteBio Kinetic buffer diluted 1:10 in PBS assay buffer to establish an equilibrium for 120 s (baseline), incubation with 10 μg/ml RON-Fc in assay buffer to coat the biosensor with binding target for 900 s (load), incubation with MSP, MSP β or scMSP in assay buffer containing various concentrations (75-4.7 nM, 2-fold dilution series) for 400 s (association), and incubation with assay buffer to measure the off-rate of MSP for 400 s (dissociation). Operating temperature was maintained at 30° C. Data were generated automatically by the Octet Data Acquisition 7.0 software. Each data set was fitted globally to a simple one-to-one binding model using ForteBio Analysis Software 7.0 to determine the kinetic parameters kₐ and kd. The equilibrium dissociation constants (KD) were then calculated as a ratio (koff/kₒₙ) of these rate constants.

[6] = target: T2, Mouse RON-hIgG1 Fc (murine RON …); test: SPR (Biacore), anti-Fc chip, murine RON-Fc captured and MSP protein injected; table headed 'Similar High Affinities for Murine RON'
Protocol: as §1
To function as a RON agonist, MSPβ-IgG2a fusion proteins must bind the RON receptor. To assay binding, surface plasmon resonance was used to measure the affinity of full-length human MSP, human and mouse MSP β, and a number of human and mouse MSPβ-IgG2a fusions for immobilized RON receptor. […]

[7] = target: T4, Human RON-hIgG1 Fc (RON Sema/PSI/IPT1 …); test: SPR capturing RON-Fc at 25 C
Protocol: To determine MSP protein binding kinetics to hRON-Fc or mRON-Fc fusion proteins, between 50 and 100 response units (RU) were captured on each of three immobilized anti-human Fc surfaces. Various concentrations (50-0.78 nM, 2-fold dilution series) of MSP, MSP β, MSP α or scMSP were injected in HBS-P buffer (10 mM HEPES, pH 7.5, 150 mM NaCl, 0.005% P20) at 25° C. with a flow rate of 30 μL/min and dissociation monitored for 4 min. Between measurements, the biosensor surfaces were regenerated with a 2 min pulse of 10 mM glycine-HCl pH 1.5.

Binder	fold increase in Akt phosphorylation, MSD, colon of injected mice [1] [fold]	Kd [2] [nM]	EC50 (read off the curve) [3] [µg/mL]	Kd [6] [nM]	also measured
Mouse MSP β-L4-mIgG2a Fc (Fc fusion, also called m4m) VVGGHPGNSPWTVSLRNRQGQHFCGGSLVKEQWVLTARQCIWSCHEPLTGYEVWLGTINQNPQPGEANLQRVPVAKAVCGPAGSQLVLLKLERPVILNHHVALIALPPEQYVVPPGTKCEIAGWGESIGTSNNTVLHVASMNVISNQECNTKYRGHIQESEICTQGLVVPVGACEGDYGGPLACYTHDAWVLQGLIIPNRVCARPRWPAIFTRVSVFVDWINKVMQLETIKPCPPCKCPAPNLLGGPSVFIFPPKIKDVLMISLSPIVTCVVVDVSEDDPDVQISWFVNNVEVHTAQTQTHREDYNSTLRVVSALPIQHQDWMSGKEFKCKVNNKDLPAPIERTISKPKGSVRAPQVYVLPPPEEEMTKKQVTLTCMVTDFMPEDIYVEWTNNGKTELNYKNTEPVLDSDGSYFMYSKLRVEKKNWVERNSYSCSVVHEGLHNHHTTKSFSRTPGK	~2.6	8.3	–	–	–
Mouse MSP β-L8-mIgG2a Fc (Fc fusion, also called m8m) VVGGHPGNSPWTVSLRNRQGQHFCGGSLVKEQWVLTARQCIWSCHEPLTGYEVWLGTINQNPQPGEANLQRVPVAKAVCGPAGSQLVLLKLERPVILNHHVALIALPPEQYVVPPGTKCEIAGWGESIGTSNNTVLHVASMNVISNQECNTKYRGHIQESEICTQGLVVPVGACEGDYGGPLACYTHDAWVLQGLIIPNRVCARPRWPAIFTRVSVFVDWINKVMQLEPRGPTIKPCPPCKCPAPNLLGGPSVFIFPPKIKDVLMISLSPIVTCVVVDVSEDDPDVQISWFVNNVEVHTAQTQTHREDYNSTLRVVSALPIQHQDWMSGKEFKCKVNNKDLPAPIERTISKPKGSVRAPQVYVLPPPEEEMTKKQVTLTCMVTDFMPEDIYVEWTNNGKTELNYKNTEPVLDSDGSYFMYSKLRVEKKNWVERNSYSCSVVHEGLHNHHTTKSFSRTPGK	~2	8.5	~0.05	–	–
Mouse MSP β-L12-mIgG2a Fc (Fc fusion, also called m12m; mMSPβ-L12-mIgG2a) VVGGHPGNSPWTVSLRNRQGQHFCGGSLVKEQWVLTARQCIWSCHEPLTGYEVWLGTINQNPQPGEANLQRVPVAKAVCGPAGSQLVLLKLERPVILNHHVALIALPPEQYVVPPGTKCEIAGWGESIGTSNNTVLHVASMNVISNQECNTKYRGHIQESEICTQGLVVPVGACEGDYGGPLACYTHDAWVLQGLIIPNRVCARPRWPAIFTRVSVFVDWINKVMQLEKKIEPRGPTIKPCPPCKCPAPNLLGGPSVFIFPPKIKDVLMISLSPIVTCVVVDVSEDDPDVQISWFVNNVEVHTAQTQTHREDYNSTLRVVSALPIQHQDWMSGKEFKCKVNNKDLPAPIERTISKPKGSVRAPQVYVLPPPEEEMTKKQVTLTCMVTDFMPEDIYVEWTNNGKTELNYKNTEPVLDSDGSYFMYSKLRVEKKNWVERNSYSCSVVHEGLHNHHTTKSFSRTPGK	~2.3	10.4	~0.05	–	–
Mouse MSP β-L16-mIgG2a Fc (Fc fusion, also called m16m) VVGGHPGNSPWTVSLRNRQGQHFCGGSLVKEQWVLTARQCIWSCHEPLTGYEVWLGTINQNPQPGEANLQRVPVAKAVCGPAGSQLVLLKLERPVILNHHVALIALPPEQYVVPPGTKCEIAGWGESIGTSNNTVLHVASMNVISNQECNTKYRGHIQESEICTQGLVVPVGACEGDYGGPLACYTHDAWVLQGLIIPNRVCARPRWPAIFTRVSVFVDWINKVMQLEQVTDKKIEPRGPTIKPCPPCKCPAPNLLGGPSVFIFPPKIKDVLMISLSPIVTCVVVDVSEDDPDVQISWFVNNVEVHTAQTQTHREDYNSTLRVVSALPIQHQDWMSGKEFKCKVNNKDLPAPIERTISKPKGSVRAPQVYVLPPPEEEMTKKQVTLTCMVTDFMPEDIYVEWTNNGKTELNYKNTEPVLDSDGSYFMYSKLRVEKKNWVERNSYSCSVVHEGLHNHHTTKSFSRTPGK	~2.5	8.4	~0.05	–	–
Human MSP β 689R (HGF leader + V484-G711 + C588S + C672A + His tag) (ligand, This is an inference) VVGGHPGNSPWTVSLRNRQGQHFCGGSLVKEQWILTARQCFSSCHMPLTGYEVWLGTLFQNPQHGEPSLQRVPVAKMVCGPSGSQLVLLKLERSVTLNQRVALISLPPEWYVVPPGTKCEIAGWGETKGTGNDTVLNVALLNVISNQECNIKHRGRVRESEMCTEGLLAPVGACEGDYGGPLACFTHNAWVLEGIIIPNRVCARSRWPAVFTRVSVFVDWIHKVMRLGHHHHHH	–	–	–	5.1	Kd [4]: 6.6 nM; koff [4]: 0.0159 s⁻¹; kon [4]: 2.45e+06 M⁻¹ s⁻¹; Kd [5]: 7.5 nM; koff [5]: 0.0025 s⁻¹; kon [5]: 388000 M⁻¹ s⁻¹; Kd [7]: 9.6 nM; koff [7]: 0.0275 s⁻¹; kon [7]: 3.53e+06 M⁻¹ s⁻¹
Hexahistidine-tagged murine MSP β (HGF leader + V489-E716 + C593A + C677A + His tag) (ligand, also called Mouse MSP β) VVGGHPGNSPWTVSLRNRQGQHFCGGSLVKEQWVLTARQCIWSCHEPLTGYEVWLGTINQNPQPGEANLQRVPVAKAVCGPAGSQLVLLKLERPVILNHHVALIALPPEQYVVPPGTKCEIAGWGESIGTSNNTVLHVASMNVISNQECNTKYRGHIQESEICTQGLVVPVGACEGDYGGPLACYTHDAWVLQGLIIPNRVCARPRWPAIFTRVSVFVDWINKVMLEHHHHHHH	–	–	–	6.4	–
